Data reported in PMC3792052, “Structural Analysis of Intermolecular Interactions in the Kinesin Adaptor Complex Fasciculation and Elongation Protein Zeta 1/ Short Coiled-Coil Protein (FEZ1/SCOCO)” (PLoS ONE, 2013).

What was measured:
[1] = molecular target: 6xHis-FEZ1 (1-392) (human) (UniProt Q99689); assay: SAXS; complex formed by lysing the two E. coli pellets together, two-step co-affinity purification (6xHis, then GST); purified complex at 1.10 and 0.34 mg/mL in PBS, 20 °C; mass from I(0) against BSA
[2] = molecular target: the molecule itself; assay: as above

With GST-SCOCO (2-82) (natural protein) the stoichiometry N (GST-SCOCO per 6xHis-FEZ1 (2:2)) [1] was 1.

B1: 6xHis-FEZ1 (1-392) (natural protein, human, UniProt Q99689 1-392, looked up)
chain: MEAPLVSLDEEFEDLRPSCSEDPEEKPQCFYGSSPHHLEDPSLSELENFSSEIISFKSMEDLVNEFDEKLNVCFRNYNAKTENLAPVKNQLQIQEEEETLQDEEVWDALTDNYIPSLSEDWRDPNIEALNGNCSDTEIHEKEEEEFNEKSENDSGINEEPLLTADQVIEEIEEMMQNSPDPEEEEEVLEEEDGGETSSQADSVLLQEMQALTQTFNNNWSYEGLRHMSGSELTELLDQVEGAIRDFSEELVQQLARRDELEFEKEVKNSFITVLIEVQNKQKEQRELMKKRRKEKGLSLQSSRIEKGNQMPLKRFSMEGISNILQSGIRQTFGSSGTDKQYLNTVIPYEKKASPPSVEDLQMLTNILFAMKEDNEKVPTLLTDYILKVLCPT
notes: Predicted mass of the tagged protein printed as 48.8 KDa; also called fasciculation and elongation protein zeta 1; source: for SAXS cells lysed together with GST-SCOCO cells and co-purified (HiTrap chelating, then GST-Trap)
In the case of B1, the “stoichiometry N” value [2] is reported as 2.
